Changes are numbered by the printed parent chain.

One test deals with T1, Macaque Trop-2-His (macaque, UniProt P09758 27-274 (human entry)).
T1 construct: Extracellular domain of macaque Trop-2 recombinantly linked to His; also called monkey Trop-2-His protein; monkey Trop-2
T1 chain: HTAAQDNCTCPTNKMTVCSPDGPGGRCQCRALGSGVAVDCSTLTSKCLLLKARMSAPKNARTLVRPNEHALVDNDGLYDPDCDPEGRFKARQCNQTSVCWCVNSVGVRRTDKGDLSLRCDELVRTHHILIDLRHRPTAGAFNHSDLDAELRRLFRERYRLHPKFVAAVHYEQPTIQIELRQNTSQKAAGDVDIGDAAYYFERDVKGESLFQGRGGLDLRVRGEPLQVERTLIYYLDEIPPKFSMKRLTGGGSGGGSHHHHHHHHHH
As to the kind of experiment: ELISA, plate-coated macaque Trop-2-His. The method, then: (§1) After the liquid was discarded, 2% BSA (SIGMA, B2064-100G) diluted with PBS was added at 300 μL/well for blocking, and the mixture was incubated at 37° C. for 2 h. After the blocking was completed, the blocking buffer was discarded, the plate was washed 3 times with the PBST buffer (pH 7.4 PBS containing 0.1% tween-20), the antibody solution diluted in a gradient was added at 100 μL/well, and the mixture was incubated at 37° C. for 1 h. After the incubation was completed, the plate was washed 3 times with PBST, the goat anti-human IgG (H+L) (JacksonImmunoResearch, 109-035-098, 1:5000 dilution) was added at 100 μL/well, and the mixture was incubated at 37° C. for 1 h. After the plate was washed 3 times with PBST, a TMB chromogenic substrate (TIANGEN, PA107-01) was added at 100 μL/well. The mixture was incubated at room temperature for 10-15 min, and then 1 M H₂SO₄ was added at 50 μL/well to terminate the reaction. The absorbance values at 450 nm were taken using a microplate reader. The binding curves of antibodies for antigen were fitted using software, and the EC₅₀ values were calculated.
In general terms: In an ELISA, binding on a coated surface is turned into a signal by an enzyme label.

Test [1] has as its target T2, human Trop-2-His (human, UniProt P09758 27-274, limits assumed).
T2 construct: by analogy with the macaque construct it is probably the extracellular domain with a His tag; also called Trop-2-His protein
T2 sequence: T1 chain with V36M, N67S, V204I
Kind of test: ELISA, plate-coated human Trop-2-His. The method, then: as §1, with “with” for “with the”

The target in test [2] is T3, human Trop-2 (on the surface of human cell lines) (human, UniProt P09758 27-323).
T3 sequence: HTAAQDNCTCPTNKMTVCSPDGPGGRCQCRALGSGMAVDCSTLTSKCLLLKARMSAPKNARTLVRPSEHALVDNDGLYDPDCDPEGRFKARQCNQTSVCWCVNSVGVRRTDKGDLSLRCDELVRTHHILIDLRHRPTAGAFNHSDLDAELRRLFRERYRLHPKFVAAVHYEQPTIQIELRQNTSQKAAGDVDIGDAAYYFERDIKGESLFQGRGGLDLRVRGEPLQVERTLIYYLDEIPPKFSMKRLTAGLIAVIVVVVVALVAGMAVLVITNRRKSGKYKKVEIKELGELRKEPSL
As to the kind of experiment: cell-based or functional assay.

The target in test [3] is T2, human Trop-2-His. Kind of test: SPR (Biacore 8K), antibody captured, Trop-2-His as analyte. The source says:
The affinity of antibodies for human Trop-2-His was detected in the form of antibody capturing. The antibody was affinity-captured by a CM5 (Cat. #29149603, GE) biosensor chip conjugated with an anti-human IgG antibody (from human antibody capture kit, Cat. #29234600, GE), then the antigen human Trop-2-His flowed on the surface of the chip, and a Biacore 8K instrument was used for detecting reaction signals in real time to obtain association and dissociation curves. After dissociation was completed for each assay cycle, the chip was washed clean and regenerated with a regeneration buffer, 3M MgCl₂ (from human antibody capture kit, Cat. #29234600, GE). The association and dissociation curves were collected by Biacore 8K Control Software 3.0 in real time, and the data were analyzed by Biacore Insight Evaluation Software 3.0. The data were fitted using a Langmuir 1:1 model after double subtraction (namely, in each cycle, the contrast channel signal was subtracted from the experimental channel signal, and the sample signal was subtracted from the blank signal), and the association rate constant Ka, the dissociation rate constant Kd, and the equilibrium constant KD were calculated.
For orientation: Surface plasmon resonance follows binding to a sensor surface in real time, without labels.

Test [4] addresses T3, human Trop-2 (on the surface of human …). As to the kind of experiment: cell-based or functional assay. The source holds these as a separate data set.

B1: hz-Ab2-1.1 (antibody, human IgG1, kappa, V domains shown)
VH: EVQLVESGGGLIQPGGSLRLSCAVSGFSLTYYGIDWVRQPPGKGLEWVSVIWGSGNTKYNSALKSRLTISRDNSKSTLYLQMNSLRAEDTAVYYCARFYEGFAYWGQGTLVTVSS
VL: DIQMTQSPSSLSASVGDRVTITCKASQDINSYLSWFQQKPGKAPKTLIYRANRLVEGVPSRFSGSGSGQDYTLTISSLQPEDFATYYCLQYDEFPLTFGQGTKVEIKR
notes: Humanized antibody
B1 registered an EC50 in the test with Macaque Trop-2-His of 0.133 nM. This molecule also registered a 50% effective concentration (EC50) in the test with human Trop-2-His [1] of 0.082 nM. For the same molecule, in test [2], the “ADCC, PBMC killing (LDH), H322, EC50” value is 0.13 nM; the “ADCC, PBMC killing (LDH), H322, Maximum killing (%)” value was 47.8%; the “ADCC, PBMC killing (LDH), HCC1806, EC50” value worked out at 0.46 nM; the “ADCC, PBMC killing (LDH), HCC1806, Maximum killing (%)” value came to 32.9%. In the test with human Trop-2-His [3], this molecule registered a Kd of 47.8 nM, an off-rate (koff) of 0.0029 s⁻¹ and a kon of 60600 M⁻¹ s⁻¹. Besides, in test [4], the “ADCC reporter (Jurkat-CD16a v158-NFAT-luciferase), target cell H322, EC50” value came out at 1.45 nM and the “ADCC reporter (Jurkat-CD16a v158-NFAT-luciferase), target cell HCC1806, EC50” value was 4.1 nM.

B2: hz-Ab2-2.2 (antibody, human IgG1, kappa, V domains shown)
VH: B1 VH with G9P, S49G, S61Y, R71K
VL: B1 VL with K24R, Y71F, F94Y
notes: Humanized antibody
As for B2, it took 0.341 nM to reach a half-maximal effect in the test with Macaque Trop-2-His (EC50). The molecule further yielded an EC50 in the test with human Trop-2-His [1] of 0.218 nM. Besides, in the test with human Trop-2-His [3], the equilibrium dissociation constant (Kd) was 2.41 nM, the off-rate (koff) is 0.00059 s⁻¹ and the kon was found to be 245000 M⁻¹ s⁻¹.

B3: hz-Ab2-2.3 (antibody, human IgG1, kappa, V domains shown)
VH: QVQLQESGPGLVKPSETLSLTCTVSGFSLTYYGIDWIRQPPGKGLEWIGVIWGSGNTKYNSALKSRVTISKDNSKSQFSLKLSSVTAADTAVYYCARFYEGFAYWGQGTLVTVSS
VL: B1 VL with K24R, Y71F, F94Y
notes: Humanized antibody
Consider B3, for which, in the test with Macaque Trop-2-His, the response was half-maximal at 0.83 nM (EC50). For the same molecule, in the test with human Trop-2-His [1], the EC50 amounted to 0.359 nM. In the test with human Trop-2-His [3], the equilibrium dissociation constant (Kd) came to 2.72 nM, the off-rate (koff) came out at 0.000643 s⁻¹ and the kon came out at 237000 M⁻¹ s⁻¹.

B4: hz-Ab2-2.1 (antibody, human IgG1, kappa, V domains shown)
VH: B1 VH
VL: B1 VL with K24R, Y71F, F94Y
notes: Humanized antibody
As for B4, the midpoint of the response with Macaque Trop-2-His, the EC50, lay at 1.19 nM. Also, a half-maximal effect in the test with human Trop-2-His [1] (EC50) was put at 1.08 nM. In addition, in the test with human Trop-2-His [3], binding was put at a Kd of 0.686 nM, the koff worked out at 0.00023 s⁻¹ and the kon worked out at 336000 M⁻¹ s⁻¹.

As usually defined, the EC50 is the concentration giving half of the maximal effect. High values mean a need for much substance, low ones an effect from little substance. Usually Kd stands for a measure of binding affinity in units of concentration. A low value points to a tighter complex. Usually koff stands for the rate constant with which the complex falls apart. Read a low koff as slow dissociation. One may read the kon as a measure of how fast the partners come together. The low end stands for slower complex formation, the high end for faster complex formation.
